PMC3257806 (Nature Cell Biology, 2011)

T1: GST-SHARPIN (Homo sapiens, UniProt Q9H0F6)
T1 sequence (Q9H0F6 1-387): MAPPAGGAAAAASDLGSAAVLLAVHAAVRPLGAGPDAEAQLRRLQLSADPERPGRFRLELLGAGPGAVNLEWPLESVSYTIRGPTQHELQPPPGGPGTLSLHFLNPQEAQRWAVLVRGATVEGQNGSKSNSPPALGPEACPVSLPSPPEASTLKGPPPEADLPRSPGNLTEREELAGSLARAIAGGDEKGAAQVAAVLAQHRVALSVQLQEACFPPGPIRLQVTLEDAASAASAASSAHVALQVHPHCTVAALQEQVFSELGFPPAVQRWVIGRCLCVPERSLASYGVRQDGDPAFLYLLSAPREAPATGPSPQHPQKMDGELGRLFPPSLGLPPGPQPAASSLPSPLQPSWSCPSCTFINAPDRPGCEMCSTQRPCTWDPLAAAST


Legend:
GST-SHARPIN = biological target: T1, GST-SHARPIN; format: binding; details: 2.5 μM biotinylated peptide on streptavidin-sepharose beads; Western blot
[1] = biological target: EDANS-labelled wild-type α2-peptide (α2-wt); experiment: fluorescence polarisation

interaction of recombinant GST-SHARPIN with biotinylated peptide (pull-down) (GST-SHARPIN) | Kd [1] [µM] | Molecule
did not interact |  | β1-tail: peptide of the cytoplasmic domain of β1-integrin, biotinylated or unlabelled
 | 26 | recombinant GST-SHARPIN (natural protein) MAPPAGGAAAAASDLGSAAVLLAVHAAVRPLGAGPDAEAQLRRLQLSADPERPGRFRLELLGAGPGAVNLEWPLESVSYTIRGPTQHELQPPPGGPGTLSLHFLNPQEAQRWAVLVRGATVEGQNGSKSNSPPALGPEACPVSLPSPPEASTLKGPPPEADLPRSPGNLTEREELAGSLARAIAGGDEKGAAQVAAVLAQHRVALSVQLQEACFPPGPIRLQVTLEDAASAASAASSAHVALQVHPHCTVAALQEQVFSELGFPPAVQRWVIGRCLCVPERSLASYGVRQDGDPAFLYLLSAPREAPATGPSPQHPQKMDGELGRLFPPSLGLPPGPQPAASSLPSPLQPSWSCPSCTFINAPDRPGCEMCSTQRPCTWDPLAAAST
